Where “and” joins values, the source holds several entries; their conditions need not be identical. Equal values may be shown once.
Target: EGFP-labeled Kif15 (EGFP-Kif15) (human)
Assay: single-molecule fluorescence intensity and photobleaching steps

Substance: EGFP-labeled Kif15 (EGFP-Kif15) (natural protein)
- stoichiometry N: 2 and > 2

— article PMC5084272
